T1: FcγRIIa H (human, UniProt P12318 34-217)
T1 construct: extracellular domain; also called FcgRIIa H type; 2aH; not shown: His tag at the C terminus
T1 sequence (looked up): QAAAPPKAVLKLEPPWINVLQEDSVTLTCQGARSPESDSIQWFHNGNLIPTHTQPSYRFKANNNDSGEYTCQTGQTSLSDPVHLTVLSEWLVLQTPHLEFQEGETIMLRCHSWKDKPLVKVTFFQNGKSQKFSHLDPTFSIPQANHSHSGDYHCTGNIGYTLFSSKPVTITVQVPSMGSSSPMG

B1: GpH7-B3 variant L328_14T/GpL16-k0 (antibody, human IgG1, kappa)
heavy: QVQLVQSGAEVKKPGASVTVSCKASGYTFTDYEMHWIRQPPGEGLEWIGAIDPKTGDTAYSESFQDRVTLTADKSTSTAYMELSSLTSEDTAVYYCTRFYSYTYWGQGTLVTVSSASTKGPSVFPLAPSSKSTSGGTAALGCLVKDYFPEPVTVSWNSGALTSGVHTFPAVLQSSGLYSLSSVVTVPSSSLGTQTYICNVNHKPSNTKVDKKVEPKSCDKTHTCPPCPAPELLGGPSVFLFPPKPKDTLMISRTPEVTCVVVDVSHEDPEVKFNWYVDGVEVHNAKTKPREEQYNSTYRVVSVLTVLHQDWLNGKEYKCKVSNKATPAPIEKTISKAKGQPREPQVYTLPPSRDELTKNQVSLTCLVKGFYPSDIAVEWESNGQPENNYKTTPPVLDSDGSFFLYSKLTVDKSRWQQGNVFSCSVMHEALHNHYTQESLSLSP
light: DIVMTQSPLSLPVTPGEPASISCQASESLVHSNRNTYLHWYLQKPGQSPQLLIYKVSNRFSGVPDRFSGSGSGTDFTLKISRVEAEDVGVYYCSQNTHVPPTFGQGTKVEIERTVAAPSVFIFPPSDEQLKSGTASVVCLLNNFYPREAKVQWKVDNALQSGNSQESVTEQDSKDSTYSLSSTLTLSKADYEKHKVYACEVTHQGLSSPVTKSFNRGEC
notes: also called Ho Ab L328_14T
B2: GpH7-A5/GpH7-B3 variant I332_02A/GpL16-k0 (antibody, human IgG1, kappa)
heavy 1: not shown
heavy 2: not shown
light: B1 light
notes: also called He Ab I332_02A
B3: GpH7-B3 variant T335_19Q/GpL16-k0 (antibody, human IgG1, kappa)
heavy: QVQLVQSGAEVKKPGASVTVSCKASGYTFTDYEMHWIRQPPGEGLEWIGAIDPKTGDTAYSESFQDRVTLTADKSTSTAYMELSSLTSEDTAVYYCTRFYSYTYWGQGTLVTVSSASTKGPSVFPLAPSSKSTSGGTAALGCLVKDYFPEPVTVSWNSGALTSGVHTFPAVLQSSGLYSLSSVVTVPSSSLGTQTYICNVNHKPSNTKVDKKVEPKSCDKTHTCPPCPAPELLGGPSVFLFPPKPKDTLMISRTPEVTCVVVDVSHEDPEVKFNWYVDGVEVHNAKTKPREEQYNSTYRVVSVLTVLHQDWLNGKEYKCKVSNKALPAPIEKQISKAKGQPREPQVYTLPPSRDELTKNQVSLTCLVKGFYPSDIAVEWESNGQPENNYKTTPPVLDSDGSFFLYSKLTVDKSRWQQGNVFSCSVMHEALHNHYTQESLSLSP
light: B1 light
notes: also called Ho Ab T335_19Q
B4: GpH7-A5/GpH7-B3 variant I332_09D/GpL16-k0 (antibody, human IgG1, kappa)
heavy 1: not shown
heavy 2: not shown
light: B1 light
notes: also called He Ab I332_09D
B5: GpH7-B3 variant S324_20W/GpL16-k0 (antibody, human IgG1, kappa)
heavy: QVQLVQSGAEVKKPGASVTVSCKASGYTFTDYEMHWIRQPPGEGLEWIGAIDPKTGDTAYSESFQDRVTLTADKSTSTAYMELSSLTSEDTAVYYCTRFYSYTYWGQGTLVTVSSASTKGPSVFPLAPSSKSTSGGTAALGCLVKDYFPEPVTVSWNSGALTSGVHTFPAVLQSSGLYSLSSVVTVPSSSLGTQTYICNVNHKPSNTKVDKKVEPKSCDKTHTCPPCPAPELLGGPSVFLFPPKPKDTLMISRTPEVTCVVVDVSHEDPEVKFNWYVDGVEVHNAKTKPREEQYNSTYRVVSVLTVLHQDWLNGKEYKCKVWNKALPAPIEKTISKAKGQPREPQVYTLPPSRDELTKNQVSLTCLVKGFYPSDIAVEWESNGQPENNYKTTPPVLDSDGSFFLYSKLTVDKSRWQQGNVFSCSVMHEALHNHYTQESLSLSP
light: B1 light
notes: also called Ho Ab S324_20W
B6: GpH7-A5/GpH7-B3 variant K334_15Y/GpL16-k0 (antibody, human IgG1, kappa)
heavy 1: not shown
heavy 2: not shown
light: B1 light
notes: also called He Ab K334_15Y
B7: GpH7-A5/GpH7-B3 variant I332_04F/GpL16-k0 (antibody, human IgG1, kappa)
heavy 1: not shown
heavy 2: not shown
light: B1 light
notes: also called He Ab I332_04F
B8: GpH7-A5/GpH7-B3 variant A330_12R/GpL16-k0 (antibody, human IgG1, kappa)
heavy 1: not shown
heavy 2: not shown
light: B1 light
notes: also called He Ab A330_12R
B9: GpH7-A5/GpH7-B3 variant I332_06M/GpL16-k0 (antibody, human IgG1, kappa)
heavy 1: not shown
heavy 2: not shown
light: B1 light
notes: also called He Ab I332_06M
B10: GpH7-A5/GpH7-B3 variant K326_19Q/GpL16-k0 (antibody, human IgG1, kappa)
heavy 1: not shown
heavy 2: not shown
light: B1 light
notes: also called He Ab K326_19Q
B11: GpH7-A5/GpH7-B3 variant H268_10E/GpL16-k0 (antibody, human IgG1, kappa)
heavy 1: not shown
heavy 2: not shown
light: B1 light
notes: also called He Ab H268_10E
B12: GpH7-B3 variant S337_14T/GpL16-k0 (antibody, human IgG1, kappa)
heavy: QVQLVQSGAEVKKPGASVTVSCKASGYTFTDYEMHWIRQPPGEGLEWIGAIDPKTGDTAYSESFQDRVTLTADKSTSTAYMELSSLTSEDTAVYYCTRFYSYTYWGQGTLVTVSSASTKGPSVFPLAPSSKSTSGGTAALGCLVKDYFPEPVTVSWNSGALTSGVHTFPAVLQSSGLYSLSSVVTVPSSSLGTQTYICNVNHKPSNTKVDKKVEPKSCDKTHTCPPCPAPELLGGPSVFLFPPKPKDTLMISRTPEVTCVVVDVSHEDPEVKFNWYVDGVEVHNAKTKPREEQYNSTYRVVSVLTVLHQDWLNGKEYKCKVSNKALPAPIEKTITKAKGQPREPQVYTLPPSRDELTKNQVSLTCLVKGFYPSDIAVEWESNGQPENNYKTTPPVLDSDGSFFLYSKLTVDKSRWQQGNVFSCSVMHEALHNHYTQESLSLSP
light: B1 light
notes: also called Ho Ab S337_14T
B13: GpH7-B3 variant S337_09D/GpL16-k0 (antibody, human IgG1, kappa)
heavy: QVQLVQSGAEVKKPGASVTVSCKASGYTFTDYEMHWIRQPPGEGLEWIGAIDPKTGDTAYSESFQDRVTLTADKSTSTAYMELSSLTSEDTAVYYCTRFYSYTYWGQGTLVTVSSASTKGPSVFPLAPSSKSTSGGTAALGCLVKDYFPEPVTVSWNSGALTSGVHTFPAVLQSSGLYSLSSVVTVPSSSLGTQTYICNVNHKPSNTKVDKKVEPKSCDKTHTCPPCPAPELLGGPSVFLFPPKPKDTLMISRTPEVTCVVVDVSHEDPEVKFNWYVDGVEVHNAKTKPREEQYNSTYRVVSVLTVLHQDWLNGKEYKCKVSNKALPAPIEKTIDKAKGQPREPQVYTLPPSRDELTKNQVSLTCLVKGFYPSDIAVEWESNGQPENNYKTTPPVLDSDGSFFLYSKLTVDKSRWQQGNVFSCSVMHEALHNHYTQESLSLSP
light: B1 light
notes: also called Ho Ab S337_09D
B14: GpH7-B3 variant T335_07I/GpL16-k0 (antibody, human IgG1, kappa)
heavy: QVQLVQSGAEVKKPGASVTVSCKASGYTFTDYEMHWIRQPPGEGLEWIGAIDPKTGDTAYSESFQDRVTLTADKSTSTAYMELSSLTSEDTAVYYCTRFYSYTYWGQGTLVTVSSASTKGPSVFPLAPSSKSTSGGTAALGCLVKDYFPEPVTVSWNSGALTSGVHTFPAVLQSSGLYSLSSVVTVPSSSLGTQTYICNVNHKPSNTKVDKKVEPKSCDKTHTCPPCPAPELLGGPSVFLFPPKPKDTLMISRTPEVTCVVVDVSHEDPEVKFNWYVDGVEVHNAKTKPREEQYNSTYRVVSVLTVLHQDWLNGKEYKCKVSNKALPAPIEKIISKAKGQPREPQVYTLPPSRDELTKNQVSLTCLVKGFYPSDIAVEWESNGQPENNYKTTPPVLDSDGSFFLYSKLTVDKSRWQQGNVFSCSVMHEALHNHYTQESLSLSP
light: B1 light
notes: also called Ho Ab T335_07I
B15: GpH7-A5/GpH7-B3 variant I332_15Y/GpL16-k0 (antibody, human IgG1, kappa)
heavy 1: not shown
heavy 2: not shown
light: B1 light
notes: also called He Ab I332_15Y
B16: GpH7-A5/GpH7-B3 variant L328_02A/GpL16-k0 (antibody, human IgG1, kappa)
heavy 1: not shown
heavy 2: not shown
light: B1 light
notes: also called He Ab L328_02A
B17: GpH7-A5/GpH7-B3 variant L235_20W/GpL16-k0 (antibody, human IgG1, kappa)
heavy 1: not shown
heavy 2: not shown
light: B1 light
notes: also called He Ab L235_20W
B18: GpH7-B3 variant S324_06M/GpL16-k0 (antibody, human IgG1, kappa)
heavy: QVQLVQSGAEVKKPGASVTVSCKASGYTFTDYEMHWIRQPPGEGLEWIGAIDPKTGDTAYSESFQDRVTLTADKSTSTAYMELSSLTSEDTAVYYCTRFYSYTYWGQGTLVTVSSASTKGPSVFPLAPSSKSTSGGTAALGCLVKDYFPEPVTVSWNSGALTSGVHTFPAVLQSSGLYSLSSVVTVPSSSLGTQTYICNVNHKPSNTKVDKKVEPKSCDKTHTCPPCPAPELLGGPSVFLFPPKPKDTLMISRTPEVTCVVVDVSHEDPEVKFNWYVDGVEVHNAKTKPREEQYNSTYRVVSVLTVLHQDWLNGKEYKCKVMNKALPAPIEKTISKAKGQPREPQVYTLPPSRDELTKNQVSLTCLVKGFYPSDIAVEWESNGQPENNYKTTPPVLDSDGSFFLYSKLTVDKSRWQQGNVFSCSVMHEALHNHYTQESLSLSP
light: B1 light
notes: also called Ho Ab S324_06M
B19: GpH7-A5/GpH7-B3 variant L328_06M/GpL16-k0 (antibody, human IgG1, kappa)
heavy 1: not shown
heavy 2: not shown
light: B1 light
notes: also called He Ab L328_06M
B20: GpH7-B3 variant S337_16H/GpL16-k0 (antibody, human IgG1, kappa)
heavy: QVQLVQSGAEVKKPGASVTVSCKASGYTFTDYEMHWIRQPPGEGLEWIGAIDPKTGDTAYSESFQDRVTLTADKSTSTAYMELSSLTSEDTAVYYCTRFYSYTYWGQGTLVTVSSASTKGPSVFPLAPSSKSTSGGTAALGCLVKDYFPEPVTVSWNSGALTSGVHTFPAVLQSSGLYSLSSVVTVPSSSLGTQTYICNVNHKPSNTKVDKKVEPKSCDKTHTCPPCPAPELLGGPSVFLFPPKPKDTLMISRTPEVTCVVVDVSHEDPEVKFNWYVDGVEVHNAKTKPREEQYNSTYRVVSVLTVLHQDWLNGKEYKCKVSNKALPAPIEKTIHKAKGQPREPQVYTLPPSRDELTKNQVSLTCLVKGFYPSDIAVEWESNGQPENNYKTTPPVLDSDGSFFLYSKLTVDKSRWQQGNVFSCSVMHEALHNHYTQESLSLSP
light: B1 light
notes: also called Ho Ab S337_16H
B21: GpH7-B3 variant T335_10E/GpL16-k0 (antibody, human IgG1, kappa)
heavy: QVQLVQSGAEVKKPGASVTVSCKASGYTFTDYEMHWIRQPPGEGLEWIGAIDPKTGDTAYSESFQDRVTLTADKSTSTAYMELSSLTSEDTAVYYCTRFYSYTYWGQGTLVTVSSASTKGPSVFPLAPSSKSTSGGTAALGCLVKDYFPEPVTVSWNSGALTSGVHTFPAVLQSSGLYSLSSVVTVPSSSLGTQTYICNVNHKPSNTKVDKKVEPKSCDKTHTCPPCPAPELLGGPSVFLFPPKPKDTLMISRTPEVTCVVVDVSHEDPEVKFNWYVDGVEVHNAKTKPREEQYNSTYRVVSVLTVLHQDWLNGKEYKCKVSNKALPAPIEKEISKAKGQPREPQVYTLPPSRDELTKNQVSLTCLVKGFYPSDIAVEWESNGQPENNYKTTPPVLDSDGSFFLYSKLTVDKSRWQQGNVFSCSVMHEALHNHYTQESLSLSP
light: B1 light
notes: also called Ho Ab T335_10E
B22: GpH7-B3 variant T335_01G/GpL16-k0 (antibody, human IgG1, kappa)
heavy: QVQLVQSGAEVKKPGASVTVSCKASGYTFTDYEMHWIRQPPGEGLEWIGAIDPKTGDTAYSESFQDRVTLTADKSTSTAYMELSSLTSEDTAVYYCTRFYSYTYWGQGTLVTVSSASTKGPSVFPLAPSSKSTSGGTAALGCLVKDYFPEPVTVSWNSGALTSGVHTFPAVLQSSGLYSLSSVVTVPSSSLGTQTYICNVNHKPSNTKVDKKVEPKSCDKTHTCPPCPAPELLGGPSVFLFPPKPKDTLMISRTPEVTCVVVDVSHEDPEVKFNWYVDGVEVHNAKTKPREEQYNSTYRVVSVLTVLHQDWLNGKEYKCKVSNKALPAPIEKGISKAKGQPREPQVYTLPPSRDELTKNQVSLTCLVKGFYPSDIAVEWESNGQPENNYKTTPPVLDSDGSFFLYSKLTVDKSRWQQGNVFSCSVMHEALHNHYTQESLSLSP
light: B1 light
notes: also called Ho Ab T335_01G
B23: GpH7-B3 variant S324_02A/GpL16-k0 (antibody, human IgG1, kappa)
heavy: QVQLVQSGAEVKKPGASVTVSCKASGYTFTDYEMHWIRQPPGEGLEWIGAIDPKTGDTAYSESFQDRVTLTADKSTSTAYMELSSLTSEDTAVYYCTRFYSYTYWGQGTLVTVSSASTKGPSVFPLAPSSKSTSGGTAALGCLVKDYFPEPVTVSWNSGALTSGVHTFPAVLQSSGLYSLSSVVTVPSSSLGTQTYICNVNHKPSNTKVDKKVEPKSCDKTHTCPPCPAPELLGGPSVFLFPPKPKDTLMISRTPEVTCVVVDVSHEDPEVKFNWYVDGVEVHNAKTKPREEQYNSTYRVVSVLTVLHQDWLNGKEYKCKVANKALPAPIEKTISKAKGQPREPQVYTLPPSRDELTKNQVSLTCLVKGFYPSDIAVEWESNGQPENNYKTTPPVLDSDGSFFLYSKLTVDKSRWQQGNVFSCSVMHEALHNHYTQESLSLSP
light: B1 light
notes: also called Ho Ab S324_02A
B24: GpH7-A5/GpH7-B3 variant G236_10E/GpL16-k0 (antibody, human IgG1, kappa)
heavy 1: not shown
heavy 2: not shown
light: B1 light
notes: also called He Ab G236_10E
B25: GpH7-A5/GpH7-B3 variant I332_16H/GpL16-k0 (antibody, human IgG1, kappa)
heavy 1: not shown
heavy 2: not shown
light: B1 light
notes: also called He Ab I332_16H
B26: GpH7-A5/GpH7-B3 variant G236_07I/GpL16-k0 (antibody, human IgG1, kappa)
heavy 1: not shown
heavy 2: not shown
light: B1 light
notes: also called He Ab G236_07I
B27: GpH7-B3 variant S324_09D/GpL16-k0 (antibody, human IgG1, kappa)
heavy: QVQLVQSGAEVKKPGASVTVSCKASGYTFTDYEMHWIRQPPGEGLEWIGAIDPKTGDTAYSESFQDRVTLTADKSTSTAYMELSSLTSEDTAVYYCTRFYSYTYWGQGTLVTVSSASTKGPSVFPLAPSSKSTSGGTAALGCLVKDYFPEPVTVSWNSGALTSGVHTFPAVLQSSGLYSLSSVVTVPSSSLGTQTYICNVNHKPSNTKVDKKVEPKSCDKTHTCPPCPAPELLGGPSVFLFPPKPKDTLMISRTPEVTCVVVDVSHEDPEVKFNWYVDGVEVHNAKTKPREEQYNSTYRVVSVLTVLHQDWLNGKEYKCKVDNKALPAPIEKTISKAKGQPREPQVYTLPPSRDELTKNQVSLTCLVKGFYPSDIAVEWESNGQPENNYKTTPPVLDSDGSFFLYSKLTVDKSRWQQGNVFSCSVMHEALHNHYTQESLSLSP
light: B1 light
notes: also called Ho Ab S324_09D
B28: GpH7-A5/GpH7-B3 variant K334_16H/GpL16-k0 (antibody, human IgG1, kappa)
heavy 1: not shown
heavy 2: not shown
light: B1 light
notes: also called He Ab K334_16H
B29: GpH7-A5/GpH7-B3 variant I332_18N/GpL16-k0 (antibody, human IgG1, kappa)
heavy 1: not shown
heavy 2: not shown
light: B1 light
notes: also called He Ab I332_18N

Molecular target: T1, FcγRIIa H
Assay: SPR Biacore, relative binding

Row | Ho/Con_2aH | He/Con_2aH | Binder
1 | 110 % of GpH7-B3/GpL16-k0 (=100) | – | B1
2 | – | 111 % of GpH7-A5/GpH7-B3/GpL16-k0 (=100) | B2
3 | 103 % of GpH7-B3/GpL16-k0 (=100) | – | B3
4 | – | 118 % of GpH7-A5/GpH7-B3/GpL16-k0 (=100) | B4
5 | 108 % of GpH7-B3/GpL16-k0 (=100) | – | B5
6 | – | 106 % of GpH7-A5/GpH7-B3/GpL16-k0 (=100) | B6
7 | – | 104 % of GpH7-A5/GpH7-B3/GpL16-k0 (=100) | B7
8 | – | 108 % of GpH7-A5/GpH7-B3/GpL16-k0 (=100) | B8
9 | – | 110 % of GpH7-A5/GpH7-B3/GpL16-k0 (=100) | B9
10 | – | 101 % of GpH7-A5/GpH7-B3/GpL16-k0 (=100) | B10
11 | – | 124 % of GpH7-A5/GpH7-B3/GpL16-k0 (=100) | B11
12 | 105 % of GpH7-B3/GpL16-k0 (=100) | – | B12
13 | 107 % of GpH7-B3/GpL16-k0 (=100) | – | B13
14 | 105 % of GpH7-B3/GpL16-k0 (=100) | – | B14
15 | – | 115 % of GpH7-A5/GpH7-B3/GpL16-k0 (=100) | B15
16 | – | 130 % of GpH7-A5/GpH7-B3/GpL16-k0 (=100) | B16
17 | – | 118 % of GpH7-A5/GpH7-B3/GpL16-k0 (=100) | B17
18 | 123 % of GpH7-B3/GpL16-k0 (=100) | – | B18
19 | – | 104 % of GpH7-A5/GpH7-B3/GpL16-k0 (=100) | B19
20 | 102 % of GpH7-B3/GpL16-k0 (=100) | – | B20
21 | 105 % of GpH7-B3/GpL16-k0 (=100) | – | B21
22 | 101 % of GpH7-B3/GpL16-k0 (=100) | – | B22
23 | 102 % of GpH7-B3/GpL16-k0 (=100) | – | B23
24 | – | 111 % of GpH7-A5/GpH7-B3/GpL16-k0 (=100) | B24
25 | – | 109 % of GpH7-A5/GpH7-B3/GpL16-k0 (=100) | B25
26 | – | 115 % of GpH7-A5/GpH7-B3/GpL16-k0 (=100) | B26
27 | 113 % of GpH7-B3/GpL16-k0 (=100) | – | B27
28 | – | 104 % of GpH7-A5/GpH7-B3/GpL16-k0 (=100) | B28
29 | – | 110 % of GpH7-A5/GpH7-B3/GpL16-k0 (=100) | B29
